# From patent US20200199244A1 (published 2020)
# Several values for one entry are separate records, joined by “and”; a condition that tells them apart may be missing. Equal values may be shown once.
# T1: Macaca fascicularis CD40 (Macaca fascicularis (cynomolgus monkey), UniProt P25942 21-277 (human entry))
# T1 chain: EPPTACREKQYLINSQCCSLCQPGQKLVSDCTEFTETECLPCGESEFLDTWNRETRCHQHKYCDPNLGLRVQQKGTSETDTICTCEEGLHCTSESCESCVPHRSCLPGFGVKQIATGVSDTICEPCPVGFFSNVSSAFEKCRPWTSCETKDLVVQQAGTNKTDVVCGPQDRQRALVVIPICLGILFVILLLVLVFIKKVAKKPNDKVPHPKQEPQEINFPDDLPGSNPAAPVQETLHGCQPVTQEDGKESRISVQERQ
# Experiments:
# Assay in all cases: cell-based or functional assay
# human CD40 [1] = target: T2, human CD40 (human, UniProt P25942 21-277)
# human CD40 [2] = target: T2, human CD40; remark: listed apart in the source
# Macaca fascicularis CD40 = target: T1, Macaca fascicularis CD40
"ICAM-1 Cell Assay EC50 (nM), 10% bovine serum (human CD40 [1]) [nM]","ICAM-1 Cell Assay EC50 (nM), 10% human serum (human CD40 [1]) [nM]",hIZCD40L-driven Human B Cell Proliferation EC50 (human CD40 [2]) [nM],hIZCD40L-driven Cyno B Cell Proliferation EC50 (Macaca fascicularis CD40) [nM],CHO-hCD40L-driven DC Activation IL-12 EC50 (human CD40 [2]),Binder
21.7,20.4,,,,DMS0677 DOM7h-11-90-TVA-BMS3h-56-258 (bispecific antibody) DIQMTQSPSSLSASVGDRVTITCRASRPIGTMLSWYQQKPGKAPKLLILAFSRLQSGVPSRFSGSGSGTDFTLTISNLQPEDFATYYCAQAGTHPTTFGQGTKVEIKRTVAEVQLLESGGGLVQPGGSLRLSCAASGFTFRDYEMWWVRQAPGKGLERVSAINPQGTRTYYADSVKGRFTISRDNSKNTLYLQMNSLRAEDTAVYYCAKLPFYFHEWGQGTLVTVSS
,,287,918,,BMS3h-287 (other) VH: EVQLLESGGGLVQPGGSLRLSCAASGFTFTNYRMSWVRQAPGKGLEWVSAIDDLGVSTYYADSVKGRFTISRDNSKNTLYLQMNSLRAEDTAVYYCAKWRLKNSQPTDFDYWGQGTLVTVSS
,,157,> 7000,,BMS3h-275 (other) VH: EVQLLESGGGLVQPGGSLRLSCAASGFTFTRYQMGWVRQAPGKGLEWVSVINVWGSSTYYADSVKGRFTISRDNSKNTLYLQMNSLRAEDTAVYYCAKMSGKFAYWGQGTLVTVSS
,,648,838,,BMS3h-309 (other) VH: EVQLLESGGGLVQPGGSLRLSCAASGFTFSGHDMSWVRQAPGKGLEWVSAISPHGTHTYYADSVKGRFTISRDNSKNTLYLQMNSLRAEDTAVYYCAKGIRGWIGHDTQPFDYWGQGTLVTVSS
,,328,> 7000,,BMS3h-231 (other) VH: EVQLLESGGGLVQPGGSLRLSCAASGFTFSAYNMWWARQAPGKGLEWVSWINSTGSRTYYADSVKGRFTISRDNSKNTLYLQMNSLRAEDTAVYYCAKNWHRGRFDYWGQGTLVTVSS
37.9,74.3,,,,DMS0684 BMS3h-56-258-G4S-DOM7h-11-90 (bispecific antibody) EVQLLESGGGLVQPGGSLRLSCAASGFTFRDYEMWWVRQAPGKGLERVSAINPQGTRTYYADSVKGRFTISRDNSKNTLYLQMNSLRAEDTAVYYCAKLPFYFHEWGQGTLVTVSSGGGGSDIQMTQSPSSLSASVGDRVTITCRASRPIGTMLSWYQQKPGKAPKLLILAFSRLQSGVPSRFSGSGSGTDFTLTISNLQPEDFATYYCAQAGTHPTTFGQGTKVEIKR
,,8,7,335 nM,BMS3h-217-2 (other) VL: DIQMTQSPSSLSASVGDRVTITCRASHFIGTLLSWYQQKPRKAPKLLITYGSLLQSGVPSRFSGSGSGTDFTLTISSLHPEDFATYYCGQGVLWPPTFGQGTKVEIKR
,,16,15,,BMS3h-217-23 (other) VL: DIQMTQSPSSLSASVGDRVTITCRASHFIGSLLSWYQVKPGKAPKLLITYGSLLQSGVPSRFSGSGSGTDFTLTISSLQPEDFATYYCGQGVLWPATFGQGTTVEIKR
,,33,14,,BMS3h-217-8 (other) VL: DIQMTQSPSSLSASVGDRVTITCRASHFIGTLLSWYQHKPGKAPKLLITYGSLLQSGVPSRFSGSGSGTDFTLTISSLQPEDFATYYCGQGVLWPATFGQGTKVEIKR
,,11,10,,BMS3h-217-6 (other) VL: DIQMTQSPSSLSASVGDRVTITCRASHFIGTLLSWYQQKPGKATKLLITYGSLLQSGVPSRFSGSGSGTDFTLTISSLQPEDFATYYCGQGVLWPPTFGQGTKVEIKR
,,26,8,,BMS3h-217-14 (other) VL: DIQLTQSPSSLSASVGDRVTITCRASHFIGTLLSWYQQKPGKATKLLITYGSLLQSGVPSRFSGSGSGTDFTLTISSLQPEDFATYYCGQGVLWPPTFGQGTKVEIKR
,,47,20,,BMS3h-217-15 (other) VL: DIQMTQSPSSLYASVGDRVTITCRVSHFIGTLLSWYQQKPGKAPKLLITYGSLLQSGVPSRFSGSGSGTDFTLSISSLQPEDFATYYCGQGVLWPPTFGQGTKVEIKQ
,,5,7,1120 nM,BMS3h-217-16 (other) VL: DIQMTQSPSSLSASVGDRVTITCRASHFIGTLLSWYQQKPRKAPKLLITYGSLLQSGVPSRFSGSGSGTDFTLTISSLQPEDFATYYCGQGVLWPPTFGQGTKVEIKR
39.3,74.2,,,,DMS0680 DOM7h-11-90-(G4S)3-BMS3h-56-258 (bispecific antibody) DIQMTQSPSSLSASVGDRVTITCRASRPIGTMLSWYQQKPGKAPKLLILAFSRLQSGVPSRFSGSGSGTDFTLTISNLQPEDFATYYCAQAGTHPTTFGQGTKVEIKRGGGGSGGGGSGGGGSEVQLLESGGGLVQPGGSLRLSCAASGFTFRDYEMWWVRQAPGKGLERVSAINPQGTRTYYADSVKGRFTISRDNSKNTLYLQMNSLRAEDTAVYYCAKLPFYFHEWGQGTLVTVSS
,,1100,> 7000,,BMS3h-312 (other) VH: EVQLLESGGGLVQPGGSLRLSCAASGFTFDDEKMLWVRQAPGKGLEWVSSISVSGLHTYYADSVKGRFTISRDNSKNTLYLQMNSLRAEDTAVYYCAKEEAGSWSFDYWGQGTLVTVSS
,,306,> 7000,,BMS3h-296 (other) VH: EVQLLESGGGLVQPGGSLRLSCAASGFTFGAYPMYWVRQAPGKGLEWVSSIHKDGRITYYADSVKGRFTISRDNSKNTLYLQMNSLRAEDTAVYYCAKQGTPVDGFDYWGQGTLVTVSS
,,184,> 7000,1490 nM and > 2000 nM,BMS3h-233 (other) VH: EVQLLESGGGLVQPGGSLRLSCAASGFTFAHYNMRWVRQAPGKGLEWVSTITKTGFRTYYADSVKGRFTISRDNSKNTLYLQMNSLRAEDTAVYYCAKAGQFDFDYWGQGTLVTVSS
,,> 7000,> 7000,,BMS3h-240 (other) VH: EVQLLESGGGLVQPGGSLRLSCAASGFTFWVYDMRWVRQAPGKGLEWVSTISATGVHTYYADSVKGRFTISRDNSKNTLYLQMNSLRAEDTAVYYCAKYPPAGRFDYWGQGTLVTVSS
21.7,39.2,,,,DMS0679 DOM7h-11-90-G4S-BMS3h-56-258 (bispecific antibody) DIQMTQSPSSLSASVGDRVTITCRASRPIGTMLSWYQQKPGKAPKLLILAFSRLQSGVPSRFSGSGSGTDFTLTISNLQPEDFATYYCAQAGTHPTTFGQGTKVEIKRGGGGSEVQLLESGGGLVQPGGSLRLSCAASGFTFRDYEMWWVRQAPGKGLERVSAINPQGTRTYYADSVKGRFTISRDNSKNTLYLQMNSLRAEDTAVYYCAKLPFYFHEWGQGTLVTVSS
10.2,94.8,,,,DMS0682 BMS3h-56-258-TVA-DOM7h-11-90 (bispecific antibody) EVQLLESGGGLVQPGGSLRLSCAASGFTFRDYEMWWVRQAPGKGLERVSAINPQGTRTYYADSVKGRFTISRDNSKNTLYLQMNSLRAEDTAVYYCAKLPFYFHEWGQGTLVTVSSTVADIQMTQSPSSLSASVGDRVTITCRASRPIGTMLSWYQQKPGKAPKLLILAFSRLQSGVPSRFSGSGSGTDFTLTISNLQPEDFATYYCAQAGTHPTTFGQGTKVEIKR
32.4,50.9,,,,DMS0683 BMS3h-56-258-ASTSGPS-DOM7h-11-90 (bispecific antibody) EVQLLESGGGLVQPGGSLRLSCAASGFTFRDYEMWWVRQAPGKGLERVSAINPQGTRTYYADSVKGRFTISRDNSKNTLYLQMNSLRAEDTAVYYCAKLPFYFHEWGQGTLVTVSSASTSGPSDIQMTQSPSSLSASVGDRVTITCRASRPIGTMLSWYQQKPGKAPKLLILAFSRLQSGVPSRFSGSGSGTDFTLTISNLQPEDFATYYCAQAGTHPTTFGQGTKVEIKR
43.6,53.3,,,,DMS0681 DOM7h-11-90-(G4S)5-BMS3h-56-258 (bispecific antibody) DIQMTQSPSSLSASVGDRVTITCRASRPIGTMLSWYQQKPGKAPKLLILAFSRLQSGVPSRFSGSGSGTDFTLTISNLQPEDFATYYCAQAGTHPTTFGQGTKVEIKRGGGGSGGGGSGGGGSGGGGSGGGGSEVQLLESGGGLVQPGGSLRLSCAASGFTFRDYEMWWVRQAPGKGLERVSAINPQGTRTYYADSVKGRFTISRDNSKNTLYLQMNSLRAEDTAVYYCAKLPFYFHEWGQGTLVTVSS
,,135,> 7000,704 nM,BMS3h-257 (other) VH: EVQLLESGGGLVQPGGSLRLSCAASGFTFQNYQMAWVRQAPGKGLEWVSTISGTGKNTYYADSVKGRFTISRDNSKNTLYLQMNSLRAEDTAVYYCAKTPQNYFSVRRFDYWGQGTLVTVSS
